From patent US6977175 (MIT, dated 2005)

T1: LIN-15B protein (C. elegans, UniProt Q27395 1-1440, limits assumed)
T1 construct: Tested in a yeast two-hybrid assay; The fusion partners and construct limits are not described
T1 sequence (looked up): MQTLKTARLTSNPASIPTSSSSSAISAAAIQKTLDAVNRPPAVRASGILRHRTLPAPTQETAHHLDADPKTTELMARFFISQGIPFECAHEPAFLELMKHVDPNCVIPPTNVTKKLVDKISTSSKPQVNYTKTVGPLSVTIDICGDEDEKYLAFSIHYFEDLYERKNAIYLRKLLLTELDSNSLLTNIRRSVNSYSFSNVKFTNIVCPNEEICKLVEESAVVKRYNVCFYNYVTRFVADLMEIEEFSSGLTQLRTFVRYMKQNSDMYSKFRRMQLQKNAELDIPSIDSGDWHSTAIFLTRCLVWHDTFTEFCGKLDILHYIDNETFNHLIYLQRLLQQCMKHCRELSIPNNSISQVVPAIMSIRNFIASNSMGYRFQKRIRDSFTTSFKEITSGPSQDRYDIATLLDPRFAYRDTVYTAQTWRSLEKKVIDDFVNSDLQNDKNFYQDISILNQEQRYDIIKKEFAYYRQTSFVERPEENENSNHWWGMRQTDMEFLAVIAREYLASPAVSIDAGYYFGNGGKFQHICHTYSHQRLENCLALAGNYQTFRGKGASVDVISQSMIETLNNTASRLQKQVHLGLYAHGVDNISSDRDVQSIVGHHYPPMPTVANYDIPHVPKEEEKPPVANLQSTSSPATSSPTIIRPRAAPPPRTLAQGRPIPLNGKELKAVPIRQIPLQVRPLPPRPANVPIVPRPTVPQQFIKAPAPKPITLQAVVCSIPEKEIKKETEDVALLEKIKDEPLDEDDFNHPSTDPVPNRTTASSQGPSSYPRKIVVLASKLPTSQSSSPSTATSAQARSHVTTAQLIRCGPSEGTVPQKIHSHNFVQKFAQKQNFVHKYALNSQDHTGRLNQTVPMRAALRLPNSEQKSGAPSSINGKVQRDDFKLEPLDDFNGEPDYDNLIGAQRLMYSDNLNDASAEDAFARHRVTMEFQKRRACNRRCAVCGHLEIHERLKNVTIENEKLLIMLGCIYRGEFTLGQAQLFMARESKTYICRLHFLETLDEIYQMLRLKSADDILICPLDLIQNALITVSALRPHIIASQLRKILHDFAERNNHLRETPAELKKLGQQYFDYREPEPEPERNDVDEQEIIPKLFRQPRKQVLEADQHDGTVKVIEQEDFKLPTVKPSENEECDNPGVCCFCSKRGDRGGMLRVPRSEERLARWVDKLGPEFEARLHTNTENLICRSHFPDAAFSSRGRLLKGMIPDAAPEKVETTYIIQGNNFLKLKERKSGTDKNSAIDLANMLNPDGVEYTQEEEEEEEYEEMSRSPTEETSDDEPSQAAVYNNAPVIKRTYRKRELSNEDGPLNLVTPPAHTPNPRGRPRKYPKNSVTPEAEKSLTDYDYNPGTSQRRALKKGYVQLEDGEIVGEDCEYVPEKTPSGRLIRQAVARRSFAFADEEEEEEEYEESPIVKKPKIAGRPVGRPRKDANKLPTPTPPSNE

B1: LIN-15A protein (other, C. elegans, UniProt Q27365 1-719, looked up)
chain: MLAPAAPAKDVVSADEKEEIIAKRKFRMKNVDAMRMSSLANDRMAFNKKCNALAMKFVKSAGIGTDALQLTCFQELVRHFNPIAAVVVGVKREPNSNVQAEKKTIPKVKTIQTPTQSMESVRLLQEKKASATEEQSAESASIMKHFANTIPNSTPTQSVKDVLTAAASKGQFKSSAEIFSHFPSEPSPSKPRATREGSQPSDYTYCTYLTPCILCEKALLMRESIAMTDNEAVKVLMAAVMSGHFRMATAEKAIRHERLRMCYDHVDFVYEMMCDAFEAKTESEINEMPPDRLMRGHDIYRALKRVGDLHKGKVTSNTPLYSFKNSIKSYYRNHVPRMVNGSLSKPSPKPFSELVALLQSVPPSTNLNELLNHNLSLSDADKQELIQLINGKDNRFTSRRRKIEDILDNKFAAAAAKAYRDHSEDAPSEPYIPNQSEMQNTVERRKRKLHSPEQDDAGSSSISWNAKKTKTPIDYVHLATRVLEGHSIADEALLHKSKVSYARNAFGEKPSSPTPPSAPLKFCVVNGKKYLRFENGTGPPKVVVQGNVVLRTNTLKDALTTAPRAQNQPSTSTDSSSSSEMEGIRQSFGAPQKEEEEEELVPTLLQNKPTHVESSSPVEKKPPTKTNVEKPAVRLGRMLTTAFGSMSYRTRKSVENKTDLLNQPTSASPRRMIKVVRNRNPHLAKQVAAAPSEPKHIPPTHMEKKPEELLMDPKPEPIF
notes: Tested in a yeast two-hybrid assay; The fusion partners and construct limits are not described
B2: LIN-9 protein (other, C. elegans, UniProt P30630 1-644, looked up)
chain: MSSAVRSPRKKAASDTSDPDRTSSPYSLRETSKVPSRYRNEELYLSPSRSIKRTGSPKKSPAKRLNGGRDSPSVNSLTRNSSLTMLAKAALDYESSSCALEYIFQPKEERRPPRRALALSPPPAPSNDLLAKDLEMIEMHQNLVAGLDDLDNPANMTNEAVEHRDTQSFFNMFSTDQERSAMMKQFKTYKNQTSEDVSTFMRANIKKLYNLLRYKKARQWVMCEFFYSAIDEQIFKEENEFATIIRESFPNLKNWNLTRIEWRSIRKLLGKPRRCSKVFFEEERMYLEEKRMKIRSVYEGSYLNDPSIDLKDLPAKLPRPMVVGNRVFARIRNPYDGIYSGIIDAVIPKGFRIIFDKPDIPPTLVSDTEILLDGKLDLLSIAYFIEQANSKLPSGVRPFVAAVRDSSHPHLVRDVLVSRKIERSGGPLMGPNDERLNGKNAEMVGNFPLKFLVNLVKLTKLIDIKKGLIRQLNELNADAEIQNMTSDKYSKAFQEKYAKTIIDLEHVNQNIDINMNGIQDHHMYFSSNDISTSNMKPEAVRQMCSQQAGRFVEHCNQGLNVENVHALTLIQSLTAVLLQVRTMGTQKISAVDLQSLGDAISEIRTAIHPRNVAFFQDYVEVHMKQFHTIMLESGALAGTVSNRK
notes: as for B1

Assays:
[1] = biological target: T1, LIN-15B protein; experiment: yeast two-hybrid
[2] = biological target: B1; experiment: yeast two-hybrid

| binding result [1] | binding result [2] | Binder |
| --- | --- | --- |
| no binding |  | B1 |
| no binding | no binding | B2 |
